The numbers were not newly measured in publication PMC9713128, which cites them from elsewhere.

The target in this series is HBcAg (Hepatitis B virus) (UniProt P03149). Put plainly: solution binding assay.
UniProt P03149, sequence (P03149 whole entry): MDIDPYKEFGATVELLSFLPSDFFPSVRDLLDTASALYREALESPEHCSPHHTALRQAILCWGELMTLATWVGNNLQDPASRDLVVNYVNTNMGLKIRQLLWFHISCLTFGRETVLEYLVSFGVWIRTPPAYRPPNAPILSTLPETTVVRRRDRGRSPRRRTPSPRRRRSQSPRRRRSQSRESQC

In the case of cyclic peptide C-WSFFSNI-C, the Kd (usually the concentration at which binding is half-saturated) is less than 0.025 µM. With cyclic peptide C-WPFWGPW-C, the Kd was less than 0.025 µM.
